# System: MS2 coat protein
# Assay: apparent KD of MS2 coat protein, switch OFF state (with FMN for OFF switches, without FMN for ON switches); designed switch direction (-1 OFF switch, 1 ON switch): -1; higher = weaker reporter binding
# Details: FMN input: 0 or 200 uM; Eterna round: R93 (includes R88 designs)
# Summary of the method: (§1)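 Titration buffer: 100 mM Tris-HCl pH 7.5, 80 mM KCl, 4 mM MgCl2, without or with constant ligand. Designed RNA switches transcribed on-chip from Illumina sequencing clusters received SNAP-549-labelled MS2 coat protein in twofold steps from 0.7 or 1.5 nM to 3 µM. Apparent KD is the median per design of fits to normalised cluster binding curves.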
row,Sequence,apparent KD of MS2 coat protein [nM]
1,AAGGGACAUGAGGAUCACCCAUGUUAGGAUAUGCUAUGGAAAAUAAAAUAAAAACAUAGCAGAAGGAACAAAAA [Mat - Exclusion 1 - Eli mod - D36],60.5
2,AAAACGUGAGGAUAUGCACCAAAAAAGGUAAUUCGGGUACGACAUGAGGAUCACCCAUGUAGAAGGCACGAAAA [Frodo Flailing 12 - Jieux - Exclusion 2],28.7
3,CAAAAGGAAGGAUAUACAUAAUAAAACGGGCGGGCACCUUAACAUGAGGAUCACCCAUGUAGAAGGUCCAAUAC [Onesmabe],18.6
4,AAAAAACAUGAGGAUCACCCAUGUCAGGAUAUCCGGUUCUUGAAAAAAAAGAGGCGUUGGAGAAGGGACAUUCC [Chica Displaced 13 - Jieux - Exclusion 1],38.7
5,AGUUGGCGAGGAUAUACAUGAGGAUCACCCAUGUGGAAGAAAAAAGUGAGAAAGAAAAGUAGAAGGCGCUGACA [Mat - Exclusion 3 - Lego mod - D87],316
6,AGAACGUCAGGAUAUCGAACAACAAGUAAAUAGAGAAGAAGCGAGAAGGGACAUGAGGAUCACCCAUGUAAGAA [e4-3],48.9
7,GACGAGUGAGGAUAUGUAAAAAAAAGAGAAGAGAAGAGAGAACAGAAGGCACAUGAGGAUCACCCAUGUAGGGA [Default title],71
8,AAAAAGUGAGGAUAUGGAAAAAAAAAAAAAAAAAAAAAAAACCAGAAGGCACAUGAGGAUCACCCAUGUAAAAA [exclusive 2],30.9
9,AAGAAACGAGGAUAUACAUGAGGAUCACCCAUGUAAAAGAAAGAAAAGGGAAAGAAAAGUAGAAGGCGUAAGAA [Usermaatre-sekheperenre Ramesses V],37
10,CCUAAGAAAGGAUAUACACCGGUGAACCGCUGAAAUCAGCAACAUGAGGAUCACCCAUGUAGAAGGUUUAUGGG [Erusqu],133
11,ACAGUUACAGGAUAUACAUGAAUAACUUCAAAGAAAACUCUACAUGAGGAUCACCCAUGUAGAAGGGUAACUGA [Ex2 Design 200 (fingers crossed): Random 18],18.8

# System: MS2 coat protein
# Assay: apparent KD of MS2 coat protein, switch ON state; designed switch direction (-1 OFF switch, 1 ON switch): -1; higher = weaker reporter binding
# Details: FMN input: 0 or 200 uM; Eterna round: R93 (includes R88 designs)
# Summary of the method: as §1
row,Sequence,apparent KD of MS2 coat protein [nM]
1,AAGAAACAUGAGGAUCACCCAUGUCAGGAUAUCGAAGAAAGAAAGAAAGAAAGAAGAACGAGAAGGGACAAAGG [Gaius Iulius Aquila],44.4
2,AAGAACGGAGGAUAUACAUGAGGAUCACCCAUGUAAAAGAAAGAAAAGGGAAAGAAAAGUAGAAGGCCGAAGAA [Djeserkare Amenhotep I],39.8
3,AAGAACAGAGGAUAUACAUGAGGAUCACCCAUGUAAAAGAAAGAGGGAAAAGAGAAAAGUAGAAGGCUGAAGAA [Arsinoe III],26.9
4,AAAUGCUGAGGAUAUACAUGAGGAUCACCCAUGUAAAAUAAAUAAAGGGUGUAAACGUGUAGAAGGCAGCAUAA [Exclusion 3.14e (FMN+ favored )],39.4
5,ACCUGACAUGAGGAUCACCCAUGUCAGGAUAUGACUUCGAAAAUAAAAUAAAACGAUGUCAGAAGGGACAUGGG [Design 71: Sub-opt PB],21.8
6,AAGAAGUGAGGAUAUCGAAGACUGUCGAAAAGACAGUCGAACGAGAAGGCACAUGAGGAUCACCCAUGUGAGGG [Marsurpial 65% 3],130
7,AAAAGUACAGGAUAUACAUGAGGAUCACCCAUGUAGAAAGGAAGUGUAAAAAAAAAGUGUAGAAGGGUGCAUGA [MS2 Riboswitches On Chip Exclusion 3 wbt1],22.5
8,AGGGAGUGAGGAUAUGCGAAAGAAAAAGAAGGAAAAAAAAAGCAGAAGGUACAUGAGGAUCACCCAUGUAAAAA [milkweed 7],26.5
9,AGCAAGAGAGGAUAUACAUAAAAAAAAAAAGUCUGAUCCCUACAUGAGGAUCACCCAUGUAGAAGGCUCUGGCA [Ex2 Design 156: Sub-opt 20],28.8
10,AAAAAGUCAGGAUAUCGGAAAAUAAAAAUAAAAAAAAAAAACGAGAAGGGACAUGAGGAUCACCCAUGUAUGAC [Mat - Exclusion 4 - Mayanna - D113],45.2
11,AAAGGACGAGGAUAUACAUGAGGAUCACCCAUGUAAAAAACAUAGUAAAAGGGCUUGUGUAGAAGGCGUCCAAA [Meechl Ex3 2 R2 v10],173
12,AAGAAGUCAGGAUAUCGAAAAGAAAAGAAAAGAAAAGAAAACGAGAAGGGACAUGAGGAUCACCCAUGUAAGAA [Smerdis],46.5
13,AUAAAGUGAGGAUAUGCUAAGAAGUAAAUAGACAAAUAAAUGCAGAAGGCACAUGAGGAUCACCCAUGUAAGAA [Ex 4 Tesla 4],35.9
14,"AAAGGACUAGGAUAUACAUGAGGAUCACCCAUGUAAAAAACAUAAUAAAAGAACUUAUGUAGAAGGAGUCCAAA [69%, Moding Meechl, 9]",31.7
15,AACAUGUCAGGAUAUAAAAGAAAAGAAAAGAAAGAAAAGAAUUAGAAGGGACAUGAGGAUCACCCAUGUAAGAA [EteRNA is fun!],33
16,AAAACACAUGAGGAUCACCCAUGUUAGGAUAUCCACGCUACUAAUCCUAAACAAAGCGGGAGAAGGAACGUGGC [Xerereonan],20.9

row,Sequence,apparent KD of MS2 coat protein [nM]
1,UACGUAUGAGGAUAUACAAACAGAAAAAUCAGACAUAACAGACAUGAGGAUCACCCAUGUAGAAGGCAUAUACA [JR_Exc002_Sub903],20.1
2,AAAAAGUCAGGAUAUGUCAAAGGUCACGAAAGUGACAAAGGACAGAAGGGACAUGAGGAUCACCCAUGUAAAAA [Fiskers Exclusion 4 D1],53.5
3,AGCUAGUCAGGAUAUACGCAAACGAACGAAGCAGUGAAGGGACAUGAGGAUCACCCAUGUAGAAGGGACUAGCA [Diamond 30],26.8
4,GCUUUGCAAGGAUAUACAUGAGGAUCACCCAUGUGAGAGAAAAAAGUGAGAAAGAAAAGUAGAAGGUGCGGAGG [salish99-ex3-120],34.2
5,AAAAAGUGAGGAUAUGCAGUGGCCUGUAGACGCGAGCACUUGUAGAAGGCACAUGAGGAUCACCCAUGUUUAAA [EX4 Malc#29],21.3
6,AAGGGACAUGAGGAUCACCCAUGUUAGGAUAUGCUAUGGAAAAUAAAAUAAAAACAUAGCAGAAGGAACAAAAA [Mat - Exclusion 1 - Eli mod - D36],43.2
7,AAAACGUGAGGAUAUGCACCAAAAAAGGUAAUUCGGGUACGACAUGAGGAUCACCCAUGUAGAAGGCACGAAAA [Frodo Flailing 12 - Jieux - Exclusion 2],29.9
8,CAAAAGGAAGGAUAUACAUAAUAAAACGGGCGGGCACCUUAACAUGAGGAUCACCCAUGUAGAAGGUCCAAUAC [Onesmabe],15.7
9,AAAAAACAUGAGGAUCACCCAUGUCAGGAUAUCCGGUUCUUGAAAAAAAAGAGGCGUUGGAGAAGGGACAUUCC [Chica Displaced 13 - Jieux - Exclusion 1],25
10,AGUUGGCGAGGAUAUACAUGAGGAUCACCCAUGUGGAAGAAAAAAGUGAGAAAGAAAAGUAGAAGGCGCUGACA [Mat - Exclusion 3 - Lego mod - D87],67.5
11,AGAACGUCAGGAUAUCGAACAACAAGUAAAUAGAGAAGAAGCGAGAAGGGACAUGAGGAUCACCCAUGUAAGAA [e4-3],62.5
12,GACGAGUGAGGAUAUGUAAAAAAAAGAGAAGAGAAGAGAGAACAGAAGGCACAUGAGGAUCACCCAUGUAGGGA [Default title],114
13,AAAAAGUGAGGAUAUGGAAAAAAAAAAAAAAAAAAAAAAAACCAGAAGGCACAUGAGGAUCACCCAUGUAAAAA [exclusive 2],38.6
14,AAGAAACGAGGAUAUACAUGAGGAUCACCCAUGUAAAAGAAAGAAAAGGGAAAGAAAAGUAGAAGGCGUAAGAA [Usermaatre-sekheperenre Ramesses V],30.4
15,CCUAAGAAAGGAUAUACACCGGUGAACCGCUGAAAUCAGCAACAUGAGGAUCACCCAUGUAGAAGGUUUAUGGG [Erusqu],237
16,ACAGUUACAGGAUAUACAUGAAUAACUUCAAAGAAAACUCUACAUGAGGAUCACCCAUGUAGAAGGGUAACUGA [Ex2 Design 200 (fingers crossed): Random 18],14.3
